Assay results taken from US20260069728A1, “MULTI-TARGETING COMPOUND AND USE THEREOF” (Chengdu Shetai Medical Technology Co., Ltd., priority 2023, published 2026).
Like-named read-outs stand apart in the source and are kept apart here. *1 amine or outer side, *2 acyl side, *3 side chain or, on linkers, in order; H or OH if unused. Where a SMILES comes first, the peptide text is derived from it. Bridges are numbered along the chain shown (N, C = ends). [ ]: non-standard residue; d: D form. The star is where a group is joined. X1 = N#C[C@@H]1CC(F)(F)CN1C(=O)CNC(=O)c1ccnc2ccc(OCCCN3CCN(*)CC3)cc12; DOTA = O=C(O)CN1CCN(CC(=O)O)CCN(CC(=O)*)CCN(CC(=O)O)CC1; 2Nal = N[C@@H](Cc1ccc2ccccc2c1)C(=O)O; Cit = NC(=O)NCCC[C@H](N)C(=O)O; Suc = O=C(CCC(=O)[*:2])[*:1]; AEEA = NCCOCCOCC(=O)O

Columns and labels:
[1] = Determination of hydrophilicity/lipophilicity (n-octanol/water distribution coefficient); assay type: physicochemical; details: HEPES buffer pH=7.4 / n-octanol
Description: 10 μL of Purified ^68Ga-SDYD01 was diluted to 500 μL with HEPES buffer (pH=7.4), then 500 μL of n-octanol was added. The mixture was vortexed for 30 min and then centrifuged. Subsequently, 450 μL each of the aqueous and organic phases were taken and centrifuged again. Then, 100 μL each of the aqueous and organic phases were taken, and the radioactivity was measured using a γ counter to calculate the n-octanol/water distribution coefficient (Log Do/w). The measured Log Do/w value for ^68Ga-SDYD01 was −2.54±0.01, and for ^177Lu-SDYD01 was −2.55±0.05.
(§1) 10 μL of purified ^68Ga-SDYD02 was diluted to 500 μL with HEPES buffer (pH=7.4), then 500 μL of n-octanol was added. […] Then, 100 μL each of the aqueous and organic phases were taken, and the radioactivity was measured using a γ counter to calculate the n-octanol/water distribution coefficient (Log Do/w). The measured Log Do/w value for ^68Ga-SDYD02 was −2.47±0.03, and for ^177Lu-SDYD02 was −2.35±0.02.
as §1, with “^68Ga-SDYD05” for “^68Ga-SDYD02”, “−2.37±0.02,” for “−2.47±0.03,”, “^177Lu-SDYD05” for “^177Lu-SDYD02”, “−2.46±0.05. […]” for “−2.35±0.02.”

[2] = Small animal PET imaging and biodistribution study; assay type: in vivo, NSG mice; details: NSG, mouse, in vivo, iv, 7.4 MBq, total radioactivity
In short: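 NSG mice bearing ~150 mm^3 subcutaneous U87 MG tumours received ~7.4 MBq of 68Ga-labelled tracer i.v., with micro-PET/CT static 20-min 3D scans at 30, 60 and 120 min. For biodistribution, mice were euthanised at 30/60/120 min, or 30/60/90 min for SDYD07, SDYD08 and SDYD07-1. Tissue radioactivity was decay-corrected and expressed as SUV and %ID/g.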

[3] = absolute uptake value in the tumor

Question: What does the source list for `N#C[C@@H]1CC(F)(F)CN1C(=O)CNC(=O)c1ccnc2ccc(OCCCN3CCN(C(=O)CCC(=O)N[C@@H](CCCCNC(=O)CN4CCN(CC(=O)O)CCN(CC(=O)O)CCN(CC(=O)O)CC4)C(=O)NCCOCCOCC(=O)NCCOCCOCC(=O)N[C@@H](CCCNC(=N)N)C(=O)N[C@@H](CCCNC(=N)N)C(=O)N[C@@H](Cc4ccc5ccccc5c4)C(=O)N[C@H]4CSSC[C@@H](C(=O)N[C@@H](CCCNC(=N)N)C(N)=O)NC(=O)[C@H](CCCNC(N)=O)NC(=O)[C@H](CCCNC(=N)N)NC(=O)[C@H](Cc5ccc(O)cc5)NC(=O)[C@@H]5CCCN5C(=O)[C@H](CCCCN)NC(=O)[C@H](CCCCN)NC(=O)[C@H](CCCNC(N)=O)NC(=O)[C@H](Cc5ccc(O)cc5)NC4=O)CC3)cc12` [^68Ga-SDYD01, metal not drawn] ({X1-Suc}-K(DOTA)[AEEA][AEEA]RR[2Nal]CY[Cit]KKPYR[Cit]CR-NH2; disulfide 7-16)?
Answer: n-octanol/water distribution coefficient (Log Do/w) [1]: −2.54±0.01; tissue uptake at 0.5 h [2, 3]: ≥ 10 %ID/g; tissue uptake at 1 h [2, 3]: ≥ 10 %ID/g

Question: Which “n-octanol/water distribution coefficient (Log Do/w)” value [1] does the source give for `CCCCCC(=O)N[C@H]1CSCc2cc(CSCCNC(=O)[C@H](CCCCNC(=O)CN3CCN(CC(=O)O)CCN(CC(=O)O)CCN(CC(=O)O)CC3)NC(=O)COCCOCCNC(=O)COCCOCCNC(=O)CCN3C(=O)CC(SCCNC(=O)CCC(=O)NCc4ccc(NC(=O)COCC(=O)N[C@H](Cc5ccccc5)C(=O)N[C@@H](CCC(N)=O)C(=O)N[C@@H](Cc5c[nH]c6ccccc56)C(=O)N[C@@H](C)C(=O)N[C@H](C(=O)NCC(=O)N[C@@H](Cc5c[nH]cn5)C(=O)NC(CC(C)C)CC(C)C)C(C)C)cc4)C3=O)cc(c2)CSC[C@@H](C(=O)O)NC(=O)[C@H](Cc2ccccc2)NC(=O)[C@H](CCC(N)=O)NC(=O)C([C@@H](C)O)NC(=O)[C@@H]2CCCN2C(=O)[C@@H]2CCCN2C1=O` (stereo partly drawn) [^68Ga-SDYD04, metal not drawn] here?
Answer: −1.63±0.07

Question: And the tissue uptake at 0.5 h ([2]; 30 minutes post-injection, read-out: absolute uptake value in the tumor)?
Answer: ≥ 10 %ID/g

Question: What about the tissue uptake at 1 h ([2]; 60 minutes post-injection, read-out: absolute uptake value in the tumor) of the same compound?
Answer: ≥ 10 %ID/g
